Experiments:
NPM1 = NPM1 (UniProt P06748 1-294); experiment: SPR
Ape1WT = Ape1WT (Homo sapiens, UniProt P27695 1-318); experiment: SPR
Sequence of Ape1WT (P27695 whole entry): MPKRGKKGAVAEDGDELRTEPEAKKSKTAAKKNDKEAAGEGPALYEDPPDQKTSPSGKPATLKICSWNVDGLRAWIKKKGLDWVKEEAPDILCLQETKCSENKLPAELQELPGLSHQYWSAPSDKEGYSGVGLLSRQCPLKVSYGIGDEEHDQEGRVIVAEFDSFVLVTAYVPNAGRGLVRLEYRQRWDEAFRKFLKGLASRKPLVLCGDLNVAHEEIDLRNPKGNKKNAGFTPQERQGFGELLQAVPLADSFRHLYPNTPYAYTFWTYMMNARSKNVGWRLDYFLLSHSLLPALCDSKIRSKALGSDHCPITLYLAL

Sequence of NPM1 (P06748 whole entry): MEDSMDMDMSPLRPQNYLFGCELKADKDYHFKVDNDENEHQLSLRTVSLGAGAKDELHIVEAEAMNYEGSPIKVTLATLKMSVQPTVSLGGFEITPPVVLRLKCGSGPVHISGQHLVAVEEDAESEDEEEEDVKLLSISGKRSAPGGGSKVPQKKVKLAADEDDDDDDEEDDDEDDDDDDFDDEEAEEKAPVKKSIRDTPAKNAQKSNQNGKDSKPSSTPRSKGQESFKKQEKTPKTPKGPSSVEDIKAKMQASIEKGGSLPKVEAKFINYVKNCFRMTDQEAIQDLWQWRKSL

Row | Binder | Kd (NPM1) | Kd (Ape1WT)
1 | TAGGGTTAGGGTTAGGGTTAGGG (structured_DNA) [Biot-Nat] | 147 nM | 31.6 nM
2 | TTTTTTTTTTTTTTTTTTTTTTT (ssDNA) [Biot-Poly dT] | 255 nM | 170 nM

— paper PMC6420783
